Data: patent EP3741773A1

Molecular target: cetuximab
Test: SPR, immobilized cetuximab IgG (Figure 12)

avidin saturated with biotinylated meditope, sequence (P02701 25-152): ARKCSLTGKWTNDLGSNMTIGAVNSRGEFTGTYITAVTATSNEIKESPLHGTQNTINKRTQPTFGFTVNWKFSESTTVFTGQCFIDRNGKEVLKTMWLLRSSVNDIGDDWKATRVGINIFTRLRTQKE

fold reduction of the off-rate against the monovalent meditope: > 36 fold
Substance: avidin saturated with biotinylated meditope (from UniProt P02701 25-152)
